According to patent US20240350546A1 (TEXAS A AND M UNIVERSITY SYSTEM, published 2024):

Target: T1, CD26 on Rv-CD26-transduced Jurkat T cells (human, UniProt P27487 1-766)
T1 construct: whole, on cells; also called membrane CD26
Test: ADA membrane binding efficiency from ADA activity left in medium after 24 h co-culture; Rv-ADA-CD3-293T/CD26-Jurkat T as maximum, 293T/Jurkat T without CD26 as background
Procedure: Next, we investigated the binding efficacy of ADA-CD3 on T cells. Jurkat-Dual (NF-KB &IRF/IFN), Jurkat-Dual transduced with Rv-CD26 (Jurkat-Dual-CD26), Jurkat-NFAT or Jurkat-NFAT transduced with Rv-CD26 (Jurkat-NFAT-CD26) reporter cell lines were co-cultured with Rv-ADA or Rv-ADA-CD3 (scFv) transduced 293 T cells for 24 hours. The cell culture medium was then used to measure ADA by ADA activity assay. ADA membrane binding efficiency was calculated using Rv-ADA-CD3-293T/CD26-Jurkat T as maximum and 293T/JurkatT W/O CD26 as background.

T1 sequence (P27487 whole entry): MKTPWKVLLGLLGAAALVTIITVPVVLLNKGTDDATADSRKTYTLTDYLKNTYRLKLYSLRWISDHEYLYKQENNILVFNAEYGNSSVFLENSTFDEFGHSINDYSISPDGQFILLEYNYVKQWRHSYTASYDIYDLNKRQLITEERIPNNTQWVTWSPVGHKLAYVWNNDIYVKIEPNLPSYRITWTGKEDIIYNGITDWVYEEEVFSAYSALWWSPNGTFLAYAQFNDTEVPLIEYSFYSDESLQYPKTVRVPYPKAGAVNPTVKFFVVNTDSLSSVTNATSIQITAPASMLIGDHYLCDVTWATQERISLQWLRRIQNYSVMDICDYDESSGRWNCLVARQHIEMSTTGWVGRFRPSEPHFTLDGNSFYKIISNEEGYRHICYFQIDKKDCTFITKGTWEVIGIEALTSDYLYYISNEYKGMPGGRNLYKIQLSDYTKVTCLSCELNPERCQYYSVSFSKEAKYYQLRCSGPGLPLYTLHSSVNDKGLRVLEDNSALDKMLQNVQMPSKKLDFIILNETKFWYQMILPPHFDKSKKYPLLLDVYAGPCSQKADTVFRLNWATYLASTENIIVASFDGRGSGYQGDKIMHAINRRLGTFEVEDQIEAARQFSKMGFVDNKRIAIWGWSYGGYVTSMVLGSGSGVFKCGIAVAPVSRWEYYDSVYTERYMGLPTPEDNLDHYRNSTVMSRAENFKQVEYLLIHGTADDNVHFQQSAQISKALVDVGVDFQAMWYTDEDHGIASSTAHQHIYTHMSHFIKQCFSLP

ADA membrane binding efficiency (relative to secreted ADA-CD3): 40%
B1: secreted ADA (without CD3-scFv) (enzyme, human, UniProt P00813 1-363, looked up)
chain: MAQTPAFDKPKVELHVHLDGSIKPETILYYGRRRGIALPANTAEGLLNVIGMDKPLTLPDFLAKFDYYMPAIAGCREAIKRIAYEFVEMKAKEGVVYVEVRYSPHLLANSKVEPIPWNQAEGDLTPDEVVALVGQGLQEGERDFGVKARSILCCMRHQPNWSPKVVELCKKYQQQTVVAIDLAGDETIPGSSLLPGHVQAYQEAVKSGIHRTVHAGEVGSAEVVKEAVDILKTERLGHGYHTLEDQALYNRLRQENMHFEICPWSSYLTGAWKPDTEHAVIRLKNDQANYSLNTDDPLIFKSTLDTDYQMTKRDMGFTEEEFKRLNINAAKSSFLPEDEKRELLDLLYKAYGMPPSASAGQNL
notes: Secreted by Rv-ADA transduced 293 T cells in co-culture; also called ADA1; Rv-ADA
